According to PMC3789827, “A GDF5 Point Mutation Strikes Twice - Causing BDA1 and SYNS2” (PLoS Genetics, 2013):
Numbering of substitutions follows the chain as printed. In names and notes the source's numbering stands.

B1: recombinant human GDF5 (Growth and Differentiation Factor 5), wild type (ligand, UniProt P43026 28-501, looked up)
chain: APLATRQGKRPSKNLKARCSRKALHVNFKDMGWDDWIIAPLEYEAFHCEGLCEFPLRSHLEPTNHAVIQTLMNSMDPESTPPTCCVPTRLSPISILFIDSANNVVYKQYEDMVVESCGCR
notes: Growth and Differentiation Factor 5 (GDF5), human, recombinant protein; also called rhGDF5; GDF5^wt; source: recombinant, provided by Biopharm GmbH, dissolved in 10 mM HCl
B2: BMP receptor type IB (BMPR1B) ectodomain (domain or fragment, UniProt O00238 14-126, looked up)
chain: KKEDGESTAPTPRPKVLRCKCHHHCPEDSVNNICSTDGYCFTMIEEDDSGLPVVTSGCLGLEGSDFQCRDTPIPHQRRSIECCTERNECNKDLHPTLPPLKNRDFVDGPIHHR
notes: BMP receptor type IB (BMPR1B), ectodomain
B3: recombinant human GDF5 variant W414R (ligand, UniProt P43026 28-501, looked up)
chain: B1 chain with W33R
notes: Growth and Differentiation Factor 5 (GDF5), human, recombinant protein with the patient mutation p.W414R; The mutation was found in a family with SYNS2 and BDA1 (c.T1240C); also called rhGDF5^W414R; GDF5^W414R; source: recombinant, provided by Biopharm GmbH, dissolved in 10 mM HCl

Assays:
Assay in all cases: SPR; BIA2000 system (Biacore); NOG and ectodomains of BMPR1A and BMPR1B immobilised, GDF5 proteins as analyte; apparent KD; mean of two experiments with at least six analyte concentrations
Settings in all cases: both partners purified
NOGGIN (NOG) = biological target: T1, NOGGIN (NOG) (UniProt Q13253 28-232)
T1 construct: NOGGIN (NOG), BMP antagonist
T1 sequence (looked up): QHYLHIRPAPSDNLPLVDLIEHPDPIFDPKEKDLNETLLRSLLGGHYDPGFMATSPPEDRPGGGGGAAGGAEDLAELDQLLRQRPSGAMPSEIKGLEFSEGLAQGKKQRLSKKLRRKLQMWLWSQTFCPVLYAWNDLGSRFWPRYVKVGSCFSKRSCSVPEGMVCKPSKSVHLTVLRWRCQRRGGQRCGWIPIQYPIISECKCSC

[1] = biological target: B3
[2] = biological target: T2, BMP receptor type IA (BMPR1A) ectodomain (UniProt P36894 24-152)
T2 construct: BMP receptor type IA (BMPR1A), ectodomain
T2 sequence (P36894 24-152): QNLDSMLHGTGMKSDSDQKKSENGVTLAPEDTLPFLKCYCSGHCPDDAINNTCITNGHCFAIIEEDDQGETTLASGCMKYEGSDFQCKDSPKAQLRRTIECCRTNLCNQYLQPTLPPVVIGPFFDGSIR

Binder	Kd (NOGGIN (NOG))	Kd [1]	Kd [2]
B1	2 nM		
B2		3.3 nM	
B3	25.5 nM		124 nM
